B1: unnamed (protein)
chain 1: QVQLVQSGAEVKKPGASVKVSCKASGYSFTSSWIHWVKQAPGQGLEWMGEINPGNVRTNYNENFRNKVTMTVDTSISTAYMELSRLRSDDTAVYYCTRVRFGEPYFDYWGQGTLVTVSS
chain 2: QIVLTQSPGTLSLSPGERATMTCTASSSVSSSYFHWYQQKPGQAPRLWIYRTSRLASGVPDRFSGSGSGTDFTLTISRLEPEDAATYYCHQFHRSPLTFGAGTKLEIK
B2: unnamed (protein)
chain 1: QVQLVQSGAEVKKPGASVKVSCKASGYSFTSSWIHWVKQAPGQGLEWMGEINPGNVRTNYNENFRNKVTMTVDTSISTAYMELSRLRSDDTAVYYCTRVSYGEPWFDYWGQGTLVTVSS
chain 2: QIVLTQSPGTLSLSPGERATMTCTASSSVSSSYFHWYQQKPGQAPRLWIYRTSRLASGVPDRFSGSGSGTDFTLTISRLEPEDAATYYCHQFHRSPLTFGAGTKLEIK
B3: unnamed (protein)
chain 1: QVQLVQSGAEVKKPGASVKVSCKASGYSFTSSWIHWVKQAPGQGLEWMGEINPGNVRTNYNENFRNKVTMTVDTSISTAYMELSRLRSDDTAVYYCTRVQYGYPYFDYWGQGTLVTVSS
chain 2: QIVLTQSPGTLSLSPGERATMTCTASSSVSSSYFHWYQQKPGQAPRLWIYRTSRLASGVPDRFSGSGSGTDFTLTISRLEPEDAATYYCHQFHRSPLTFGAGTKLEIK
B4: unnamed (protein)
chain 1: QVQLVQSGAEVKKPGASVKVSCKASGYSFTSSWIHWVKQAPGQGLEWMGEINPGNVRTNYNENFRNKVTMTVDTSISTAYMELSRLRSDDTAVYYCTRIRYGEPYFDYWGQGTLVTVSS
chain 2: QIVLTQSPGTLSLSPGERATMTCTASSSVSSSYFHWYQQKPGQAPRLWIYRTSRLASGVPDRFSGSGSGTDFTLTISRLEPEDAATYYCHQFHRSPLTFGAGTKLEIK
B5: unnamed (protein)
chain 1: QVQLVQSGAEVKKPGASVKVSCKASGYSFTSSWIHWVKQAPGQGLEWMGEINPGNVRTNYNENFRNKVTMTVDTSISTAYMELSRLRSDDTAVYYCTRVSYGEPYFDYWGQGTLVTVSS
chain 2: QIVLTQSPGTLSLSPGERATMTCTASSSVSSSYFHWYQQKPGQAPRLWIYRTSRLASGVPDRFSGSGSGTDFTLTISRLEPEDAATYYCHQFHRSPLTFGAGTKLEIK
B6: unnamed (protein)
chain 1: QVQLVQSGAEVKKPGASVKVSCKASGYSFTSSWIHWVKQAPGQGLEWMGEINPGNVRTNYNENFRNKVTMTVDTSISTAYMELSRLRSDDTAVYYCTRVMYGEPYFDYWGQGTLVTVSS
chain 2: QIVLTQSPGTLSLSPGERATMTCTASSSVSSSYFHWYQQKPGQAPRLWIYRTSRLASGVPDRFSGSGSGTDFTLTISRLEPEDAATYYCHQFHRSPLTFGAGTKLEIK
B7: unnamed (protein)
chain 1: QVQLVQSGAEVKKPGASVKVSCKASGYSFTSSWIHWVKQAPGQGLEWMGEINPGNVRTNYNENFRNKVTMTVDTSISTAYMELSRLRSDDTAVYYCTRVRFGYPWFDYWGQGTLVTVSS
chain 2: QIVLTQSPGTLSLSPGERATMTCTASSSVSSSYFHWYQQKPGQAPRLWIYRTSRLASGVPDRFSGSGSGTDFTLTISRLEPEDAATYYCHQFHRSPLTFGAGTKLEIK
B8: unnamed (protein)
chain 1: QVQLVQSGAEVKKPGASVKVSCKASGYSFTSSWIHWVKQAPGQGLEWMGEINPGNVRTNYNENFRNKVTMTVDTSISTAYMELSRLRSDDTAVYYCTRVRYGYPWFDYWGQGTLVTVSS
chain 2: QIVLTQSPGTLSLSPGERATMTCTASSSVSSSYFHWYQQKPGQAPRLWIYRTSRLASGVPDRFSGSGSGTDFTLTISRLEPEDAATYYCHQFHRSPLTFGAGTKLEIK
B9: unnamed (protein)
chain 1: QVQLVQSGAEVKKPGASVKVSCKASGYSFTSSWIHWVKQAPGQGLEWMGEINPGNVRTNYNENFRNKVTMTVDTSISTAYMELSRLRSDDTAVYYCTRVRYGEPWFDYWGQGTLVTVSS
chain 2: QIVLTQSPGTLSLSPGERATMTCTASSSVSSSYFHWYQQKPGQAPRLWIYRTSRLASGVPDRFSGSGSGTDFTLTISRLEPEDAATYYCHQFHRSPLTFGAGTKLEIK
B10: unnamed (protein)
chain 1: QVQLVQSGAEVKKPGASVKVSCKASGYSFTSSWIHWVKQAPGQGLEWMGEINPGNVRTNYNENFRNKVTMTVDTSISTAYMELSRLRSDDTAVYYCTRVQFGEPYFDYWGQGTLVTVSS
chain 2: QIVLTQSPGTLSLSPGERATMTCTASSSVSSSYFHWYQQKPGQAPRLWIYRTSRLASGVPDRFSGSGSGTDFTLTISRLEPEDAATYYCHQFHRSPLTFGAGTKLEIK
B11: unnamed (protein)
chain 1: QVQLVQSGAEVKKPGASVKVSCKASGYSFTSSWIHWVKQAPGQGLEWMGEINPGNVRTNYNENFRNKVTMTVDTSISTAYMELSRLRSDDTAVYYCTRVSFGEPWFDYWGQGTLVTVSS
chain 2: QIVLTQSPGTLSLSPGERATMTCTASSSVSSSYFHWYQQKPGQAPRLWIYRTSRLASGVPDRFSGSGSGTDFTLTISRLEPEDAATYYCHQFHRSPLTFGAGTKLEIK
B12: unnamed (protein)
chain 1: QVQLVQSGAEVKKPGASVKVSCKASGYSFTSSWIHWVKQAPGQGLEWMGEINPGNVRTNYNENFRNKVTMTVDTSISTAYMELSRLRSDDTAVYYCTTVRYGEPYFDYWGQGTLVTVSS
chain 2: QIVLTQSPGTLSLSPGERATMTCTASSSVSSSYFHWYQQKPGQAPRLWIYRTSRLASGVPDRFSGSGSGTDFTLTISRLEPEDAATYYCHQFHRSPLTFGAGTKLEIK
B13: unnamed (protein)
chain 1: QVQLVQSGAEVKKPGASVKVSCKASGYSFTSSWIHWVKQAPGQGLEWMGEINPGNVRTNYNENFRNKVTMTVDTSISTAYMELSRLRSDDTAVYYCTRVFYGEPYFDYWGQGTLVTVSS
chain 2: QIVLTQSPGTLSLSPGERATMTCTASSSVSSSYFHWYQQKPGQAPRLWIYRTSRLASGVPDRFSGSGSGTDFTLTISRLEPEDAATYYCHQFHRSPLTFGAGTKLEIK
B14: unnamed (protein)
chain 1: QVQLVQSGAEVKKPGASVKVSCKASGYSFTSSWIHWVKQAPGQGLEWMGEINPGNVRTNYNENFRNKVTMTVDTSISTAYMELSRLRSDDTAVYYCTRQTYGEPYFDYWGQGTLVTVSS
chain 2: QIVLTQSPGTLSLSPGERATMTCTASSSVSSSYFHWYQQKPGQAPRLWIYRTSRLASGVPDRFSGSGSGTDFTLTISRLEPEDAATYYCHQFHRSPLTFGAGTKLEIK
B15: unnamed (protein)
chain 1: QVQLVQSGAEVKKPGASVKVSCKASGYSFTSSWIHWVKQAPGQGLEWMGEINPGNVRTNYNENFRNKVTMTVDTSISTAYMELSRLRSDDTAVYYCTRVRFGEPWFDYWGQGTLVTVSS
chain 2: QIVLTQSPGTLSLSPGERATMTCTASSSVSSSYFHWYQQKPGQAPRLWIYRTSRLASGVPDRFSGSGSGTDFTLTISRLEPEDAATYYCHQFHRSPLTFGAGTKLEIK
B16: unnamed (protein)
chain 1: QVQLVQSGAEVKKPGASVKVSCKASGYSFTSSWIHWVKQAPGQGLEWMGEINPGNVRTNYNENFRNKVTMTVDTSISTAYMELSRLRSDDTAVYYCTRVTYGEPYFDYWGQGTLVTVSS
chain 2: QIVLTQSPGTLSLSPGERATMTCTASSSVSSSYFHWYQQKPGQAPRLWIYRTSRLASGVPDRFSGSGSGTDFTLTISRLEPEDAATYYCHQFHRSPLTFGAGTKLEIK
B17: unnamed (protein)
chain 1: QVQLVQSGAEVKKPGASVKVSCKASGYSFTSSWIHWVKQAPGQGLEWMGEINPGNVRTNYNENFRNKVTMTVDTSISTAYMELSRLRSDDTAVYYCTRVSFGEPYFDYWGQGTLVTVSS
chain 2: QIVLTQSPGTLSLSPGERATMTCTASSSVSSSYFHWYQQKPGQAPRLWIYRTSRLASGVPDRFSGSGSGTDFTLTISRLEPEDAATYYCHQFHRSPLTFGAGTKLEIK
B18: unnamed (protein)
chain 1: QVQLVQSGAEVKKPGASVKVSCKASGYSFTSSWIHWVKQAPGQGLEWMGEINPGNVRTNYNENFRNKVTMTVDTSISTAYMELSRLRSDDTAVYYCTRSRYGEPYFDYWGQGTLVTVSS
chain 2: QIVLTQSPGTLSLSPGERATMTCTASSSVSSSYFHWYQQKPGQAPRLWIYRTSRLASGVPDRFSGSGSGTDFTLTISRLEPEDAATYYCHQFHRSPLTFGAGTKLEIK
B19: unnamed (protein)
chain 1: QVQLVQSGAEVKKPGASVKVSCKASGYSFTSSWIHWVKQAPGQGLEWMGEINPGNVRTNYNENFRNKVTMTVDTSISTAYMELSRLRSDDTAVYYCTRVVFGEPYFDYWGQGTLVTVSS
chain 2: QIVLTQSPGTLSLSPGERATMTCTASSSVSSSYFHWYQQKPGQAPRLWIYRTSRLASGVPDRFSGSGSGTDFTLTISRLEPEDAATYYCHQFHRSPLTFGAGTKLEIK

molecular target: IL36R; experiment: Kd (SPR)

Compared with B1, B2 is 2.3-fold lower in Kd: 3.28 nM for the first, 1.4 nM for the second. The second binds more tightly here.

First: B3
Second: B4
The Kd of the first is 6.6-fold lower: 1.87 nM for the first, 12.3 nM for the second. The first binds more tightly here.

Compared with B5, B6 is 4.2-fold higher in Kd: 0.759 nM for the first, 3.16 nM for the second. The first binds more tightly here.

Going from B7 to B8, the Kd rises from 0.689 nM to 1.04 nM (1.5-fold).

Going from B9 to B10, the Kd rises from 0.888 nM to 1.61 nM (1.8-fold). The first binds more tightly here.

First: B11
Second: B12
The Kd of the first is 8-fold higher: 7.07 nM for the first, 0.888 nM for the second. The second binds more tightly here.

Compared with B13, B14 is 240-fold higher in Kd: 1.13 nM for the first, 274 nM for the second.

Compared with B15, B16 is 4.4-fold lower in Kd: 4.32 nM for the first, 0.991 nM for the second.

Going from B17 to B18, the Kd rises from 0.758 nM to 4.79 nM (6.3-fold).

Binder B19 has a Kd of 1.54 nM.

Source: the FLAb antibody collection (doi:10.1101/2023.12.08.570889)
